Source: US20240182556A1 (OPSIDIO, published 2024)

Assays:
[1] = target: human SCF248 (stem cell factor 248 isoform) expressed on mouse SI/SI4 cells (human), P21583; test: cell-based or functional assay
[2] = target: T1, exon 6 peptide (ASSLRNDSSSSNRKAKNPPGDS), coated on ELISA plate (not fully specified); test: direct ELISA on coated peptide, IgG4, read at 450 nm
T1 construct: No biotin is mentioned for the ELISA coat; also called a peptide of SCF248
T1 peptide: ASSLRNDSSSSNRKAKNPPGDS
Experimental: A direct enzyme-linked immunosorbent assay (ELISA) was performed to evaluate binding of the clones of Example 2 (referred to in all additional examples as “mutants”) to the Exon 6 peptide. The mutants were expressed as full length IgG4 antibodies.
The plate was incubated at 4° C. overnight. […] Both plates were washed with wash buffer twice. Then, the plates were blocked with blocking buffer for 1 hour at 37° C. The plates were then washed with wash buffer twice. […] The plate was covered and incubated for 1 hour at 37° C. The plates were then washed with wash buffer three times. The secondary antibody was added to the plates. The plates were covered and incubated for 1 hour at 37° C. The plates were then washed with wash buffer three times. 100 μL of detection substrate was added to each well of the plates. The plates were covered and incubated for 10-20 minutes at room temperature. Subsequently, 100 μL of stop solution was added to the plates. Each plate was read at an absorbance of 450 nm.
Reagents: Coating buffer contained 1.5M NaCl, 0.5M […], and 1.0N NaOH. Wash buffer contained 0.05% Tween-20 in PBS. Blocking buffer contained 2.0% normal goat serum in wash buffer. The dilution buffer was wash buffer and 2% FCS. The secondary antibody was a goat anti-human IgG HRP conjugate, purchased from Millipore (Catalogue Number: AP309P). The secondary antibody was diluted 1:1000. The detection substrate was prepared by dissolving 4 O-phenylenediamine dihydrochloride (OPD) tablets dissolved in 12 mL sterile distilled water. 5 μL of hydrogen peroxide (30% v/v) was added to the detection substrate immediately before adding substrate to the wells. The stop solution contained 0.5 M H₂SO₄.

Sequence of human SCF248 (stem cell factor 248 isoform) expressed on mouse SI/SI4 cells (human), P21583 (P21583 26-273): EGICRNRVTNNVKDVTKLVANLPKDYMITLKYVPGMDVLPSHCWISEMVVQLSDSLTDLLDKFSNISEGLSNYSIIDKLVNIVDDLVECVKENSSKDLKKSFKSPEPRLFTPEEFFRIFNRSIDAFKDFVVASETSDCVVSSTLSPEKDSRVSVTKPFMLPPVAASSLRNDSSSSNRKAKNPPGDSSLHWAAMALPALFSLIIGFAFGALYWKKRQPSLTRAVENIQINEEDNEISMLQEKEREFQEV

Binder | CCL2 Expression as Percentage of Positive Control [1] [%] | TGFβ Expression as Percentage of Positive Control [1] [%] | absorbance at 0.1 ng/mL antibody [2] [absorbance] | absorbance at 0.5 ng/mL antibody [2] [absorbance] | absorbance at 1 ng/mL antibody [2] [absorbance] | absorbance at 5 ng/mL antibody [2] [absorbance] | absorbance at 100 ng/mL antibody [2] [absorbance] | absorbance at 1000 ng/mL antibody [2] [absorbance]
5H10 VK3/VH1 humanized antibody of Table 1 (antibody, V domains shown) VH: QVQLVQSGAELKKPGSSVKISCKSSGYAFSSYWMNWVKQRPGQGLEWIGQIYPGDGDTHYNGKFKGKATLTADKSTSTAYMELSSLTSEDSAVYFCSSSNWVGSYWGQGTLVTVSS VL: DVVMTQSPLSLPVTLGQPASISCKSSQSLLESDGKTYLNWLQQRPGQSPRRLIYLVSRLDSGVPDRFSGSGSGTDFTLKISRVEAEDVGVYYCWQGTHLPQTFGGGTKVEIK | 37 | 65.5 | – | – | – | – | – | –
A64P mutant expressed as full length IgG4 antibody (antibody, V domains shown, Full length IgG4) VH: QVQLVQSGAELKKPGSSVKISCKSSGYAFSSNWMNWVKQRPGQGLEWIGQIYPEDGDTHYNGKFKGKATLTADKSTSTAYMELSSLTSEDSAVYFCSSSNWVGSYWGQGTLVTVSS VL: DVVMTQSPLSLPVTLGQPASISCKSSQSLLEEDGNTYLNWLQQRPGQSPRRLIYLVNRLDDGVPDRFSGSGSGTDFTLKISRVEAEDVGVYYCWQGTDLPQTFGGGTKVEIK | 22.9 | 47.9 | 0.122 | 0.172 | 0.564 | 1.41 | 2.71 | 3.12
A84P mutant expressed as full length IgG4 antibody (antibody, V domains shown, Full length IgG4) VH: QVQLVQSGAELKKPGSSVKISCKSSGYAFSSQWMNWVKQRPGQGLEWIGQIYPEDGDTHMNGKFKGKATLTADKSTSTAYMELSSLTSEDSAVYFCSSSNWVGSYWGQGTLVTVSS VL: DVVMTQSPLSLPVTLGQPASISCKSSQSLLEEDGNTYLNWLQQRPGQSPRRLIYLVDRLDIGVPDRFSGSGSGTDFTLKISRVEAEDVGVYYCWQGTDLPQTFGGGTKVEIK | 35.6 | 65.8 | 0.131 | 0.193 | 0.56 | 1.48 | 2.67 | 3.14
A104P mutant expressed as full length IgG4 antibody (antibody, V domains shown, Full length IgG4) VH: QVQLVQSGAELKKPGSSVKISCKSSGYAFSSQWMNWVKQRPGQGLEWIGQIYPEDGDTHYNGKFKGKATLTADKSTSTAYMELSSLTSEDSAVYFCSSSNWVGSYWGQGTLVTVSS VL: DVVMTQSPLSLPVTLGQPASISCKSSQSLLEEDGNTYLNWLQQRPGQSPRRLIYLVDRLDSGVPDRFSGSGSGTDFTLKISRVEAEDVGVYYCWQGTDLPQTFGGGTKVEIK | 27.4 | 46.9 | 0.092 | 0.305 | 1.02 | 1.57 | 2.6 | 2.94
B104P mutant expressed as full length IgG4 antibody (antibody, V domains shown, Full length IgG4) VH: QVQLVQSGAELKKPGSSVKISCKSSGYAFSSQWMNWVKQRPGQGLEWIGQIYPDDGDTHYNDKFKGKATLTADKSTSTAYMELSSLTSEDSAVYFCSSSNWVGSYWGQGTLVTVSS VL: DVVMTQSPLSLPVTLGQPASISCKSSQSLLEADGNTYLNWLQQRPGQSPRRLIYLVDRLDSGVPDRFSGSGSGTDFTLKISRVEAEDVGVYYCWQGTDLPQTFGGGTKVEIK | 31.7 | 43.9 | 0.0855 | 0.174 | 0.527 | 1.13 | 1.83 | 2.48
B114P mutant expressed as full length IgG4 antibody (antibody, V domains shown, Full length IgG4) VH: QVQLVQSGAELKKPGSSVKISCKSSGYAFSSQWMNWVKQRPGQGLEWIGQIYPEDGDTHMNGKFKGKATLTADKSTSTAYMELSSLTSEDSAVYFCSSSNWDGSYWGQGTLVTVSS VL: DVVMTQSPLSLPVTLGQPASISCKSSQSLLEEDGNTYLNWLQQRPGQSPRRLIYLVDRLDSGVPDRFSGSGSGTDFTLKISRVEAEDVGVYYCWQGTDLPQTFGGGTKVEIK | 59.1 | 59.5 | 0.098 | 0.127 | 0.446 | 1.11 | 2.43 | 2.81
B124P mutant expressed as full length IgG4 antibody (antibody, V domains shown, Full length IgG4) VH: QVQLVQSGAELKKPGSSVKISCKSSGYAFSSNWMNWVKQRPGQGLEWIGQIYPEDGDTHYNDKFKGKATLTADKSTSTAYMELSSLTSEDSAVYFCSSSNWVGSYWGQGTLVTVSS VL: DVVMTQSPLSLPVTLGQPASISCKSSQSLLEQDGNTYLNWLQQRPGQSPRRLIYLVDRLDSGVPDRFSGSGSGTDFTLKISRVEAEDVGVYYCWQGTDLPQTFGGGTKVEIK | 55.9 | 49.6 | 0.0985 | 0.183 | 0.629 | 1.32 | 2.4 | 2.76
D14P mutant expressed as full length IgG4 antibody (antibody, V domains shown, Full length IgG4) VH: QVQLVQSGAELKKPGSSVKISCKSSGYAFSSQWMNWVKQRPGQGLEWIGQIYPGDDDTHYNDKFKGKATLTADKSTSTAYMELSSLTSEDSAVYFCSSSNWVGSYWGQGTLVTVSS VL: DVVMTQSPLSLPVTLGQPASISCKSSQSLLESDGNTYLNWLQQRPGQSPRRLIYLVDRLDLGVPDRFSGSGSGTDFTLKISRVEAEDVGVYYCWQGTDLPQTFGGGTKVEIK | 46.8 | 48.8 | 0.137 | 0.266 | 0.861 | 1.81 | 2.53 | 3.15
D44P mutant expressed as full length IgG4 antibody (antibody, V domains shown, Full length IgG4) VH: QVQLVQSGAELKKPGSSVKISCKSSGYAFSSQWMNWVKQRPGQGLEWIGQIYPEDGDIHYNGKFKGKATLTADKSTSTAYMELSSLTSEDSAVYFCSSSNWVGSYWGQGTLVTVSS VL: DVVMTQSPLSLPVTLGQPASISCKSSQSLLEEDGNTYLNWLQQRPGQSPRRLIYLVDRLDSGVPDRFSGSGSGTDFTLKISRVEAEDVGVYYCWQGSHLPQTFGGGTKVEIK | 42.2 | 58.5 | 0.0895 | 0.207 | 0.744 | 1.98 | 2.16 | 2.9
F54P mutant expressed as full length IgG4 antibody (antibody, V domains shown, Full length IgG4) VH: QVQLVQSGAELKKPGSSVKISCKSSGYAFSSQWMNWVKQRPGQGLEWIGQIYPEDGDTHMNGKFKTKATLTADKSTSTAYMELSSLTSEDSAVYFCSSSNWVGSYWGQGTLVTVSS VL: DVVMTQSPLSLPVTLGQPASISCKSSQSLLEEDGNTYLNWLQQRPGQSPRRLIYLVDRLDSGVPDRFSGSGSGTDFTLKISRVEAEDVGVYYCWQGTDLPQTFGGGTKVEIK | 55.7 | 74.6 | 0.11 | 0.367 | 0.446 | 1.35 | 1.57 | 2.42
H74P mutant expressed as full length IgG4 antibody (antibody, V domains shown, Full length IgG4) VH: QVQLVQSGAELKKPGSSVKISCKSSGYAFSSQWMNWVKQRPGQGLEWIGQIYPEDGDTHYNGKFKGKATLTADKSTSTAYMELSSLTSEDSAVYFCSSSNWVGSYWGQGTLVTVSS VL: DVVMTQSPLSLPVTLGQPASISCKSSQSLLEEDGNTYLNWLQQRPGQSPRRLIYLVDRLDLGVPDRFSGSGSGTDFTLKISRVEAEDVGVYYCWQGSHLPQTFGGGTKVEIK | 40.6 | 58.4 | 0.105 | 0.249 | 0.58 | 1.3 | 2.56 | 3
H83P mutant expressed as full length IgG4 antibody (antibody, V domains shown, Full length IgG4) VH: QVQLVQSGAELKKPGSSVKISCKSSGYAFSSQWMNWVKQRPGQGLEWIGQIYPGDGDIHYNDKFKGKATLTADKSTSTAYMELSSLTSEDSAVYFCSSSNWVGSYWGQGTLVTVSS VL: DVVMTQSPLSLPVTLGQPASISCKSSQSLLESDGNTYLNWLQQRPGQSPRRLIYLVDRLDSGVPDRFSGSGSGTDFTLKISRVEAEDVGVYYCWQGTDLPQTFGGGTKVEIK | 56.2 | 77.1 | 0.204 | 0.537 | 0.597 | 1.42 | 1.81 | 2.32
